Values quoted from earlier work as cited in publication PMC11381810.

Legend:
[1] = target: syntaxin-1 SNARE motif (Rattus norvegicus) (UniProt P32851); details: cited from earlier work
[2] = target: syntaxin-1 dimer SNARE motif (Rattus norvegicus) (UniProt P32851); details: cited from earlier work

Chain of syntaxin-1 dimer SNARE motif (P32851 191-253): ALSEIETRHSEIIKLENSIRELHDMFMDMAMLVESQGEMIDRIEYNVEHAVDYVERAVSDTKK
Chain of syntaxin-1 SNARE motif (P32851 191-253): as above

Substance: syntaxin-1 SNARE motif (from UniProt P32851)
- Kd [1]: 1.4 µM

Substance: syntaxin-1 dimer SNARE motif (from UniProt P32851)
- Kd [2]: 12 µM
